Laboratory results reported in patent publication US20260201045A1.

Biological target: full length human CNTFR (hCNTFR, amino acids 1-372, UniProtKB/Swiss-Prot Accession #P26992) (human) (UniProt P26992)
Experiment: cell-based or functional assay

full length human CNTFR, sequence (P26992 23-342 limits assumed, one chain of several): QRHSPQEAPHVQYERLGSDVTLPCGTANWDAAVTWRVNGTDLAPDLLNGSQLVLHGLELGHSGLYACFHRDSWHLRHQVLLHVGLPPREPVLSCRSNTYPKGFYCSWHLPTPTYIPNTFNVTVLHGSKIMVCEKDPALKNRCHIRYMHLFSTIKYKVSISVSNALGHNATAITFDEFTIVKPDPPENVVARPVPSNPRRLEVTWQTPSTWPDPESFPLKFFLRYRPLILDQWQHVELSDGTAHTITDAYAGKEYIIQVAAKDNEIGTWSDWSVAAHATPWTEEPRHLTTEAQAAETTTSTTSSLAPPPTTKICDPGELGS

For “human Ciliary Neurotrophic Factor (hCNTF, R&D Systems, 257-NT) (from UniProt P26441 2-200) (ligand)”, the Ligand EC50 [M], activation of IMR-32/STAT3-luc cells (luciferase) was 2.26e-12 M.
Work on “human Cytokine-like Factor 1/human Cardiotrophin-like cytokine complex (hCLF-1/CLC, R&D Systems 1151-CL) (from UniProt O75462 38-422; Q9UBD9 28-225) (ligand)” yielded a Ligand EC50 [M], activation of IMR-32/STAT3-luc cells (luciferase) of 9.63e-11 M.
